According to US20160223562A1, “Method for Determining the Concentration of a Peptide” (JPT Peptide Technologies GmbH, priority 2010, published 2016):
Square brackets hold non-standard residues; d marks the D form. Tyr(3-NO2) = N[C@@H](Cc1ccc(O)c([N+](=O)[O-])c1)C(=O)O

How the values were obtained:
[1] = biological target: T1, Trypsin (Sus scrofa, UniProt P00761); experiment: Trypsin cleavage of N-terminal quantification tag Ac-nitroTyr-SGK- from peptides, LC-MS with UV detection at 350 nm; format: biochemical; details: trypsin protocol of example 9, 24 h, RT
T1 construct: purchased Promega Corporation V511

[2] = biological target: T1, Trypsin; experiment: Trypsin cleavage of C-terminal quantification tag -SA-nitroTyr-G from peptides, LC-MS with UV detection at 350 nm; format: biochemical; details: after reduction and alkylation, trypsin enzyme/substrate 1:50 over night at RT
Method: 23 peptides carrying the C-terminal quantification-tag-SA-nitroTyr-G-OH (SEQ ID NO:2) were synthesized by Fmoc-based solid phase peptide synthesis and purified by HPLC. Each peptide was subjected to the following trypsin cleavage protocol:
Trypsin Activation: Trypsin (20 μg, sequencing grade modified trypsin, Promega Corporation, Madison, Wis., USA, catalogue no. V511, specific activity 16.965 u/mg) was dissolved in Trypsin resuspension buffer (200 μL, Promega, catalogue no. V542A, ingredient 50 mM acetic acid) and incubated for 15 min at 37° C.
Reduction and alkylation: The peptide (approx. 0.05 mg) was dissolved in 1 M urea and 100 mM fresh ammonium hydrogen carbonate (300 μL). TCEP (Tris(2-carboxyethyl) phosphine hydrochloride, 0.2 M, 7.5 μL, final concentration 5 mM) was added and the solution incubated at 37° C. for 1 h. After addition of iodoacetamide (0.5 M, 6.0 μL, final concentration 10 mM) the solution was incubated at RT in the dark for another 30 min. Digestion: The sample was digested with activated Trypsin solution (10 μL per well, 1.0 μg, resulting enzyme/substrate ratio 1:50) over night at RT. To stop the digestion, HCl (2 M, 8 μL final concentration 50 mM) and TFA (3.2 μL, final concentration 1%, pH<2) were added. Finally, the sample was analyzed by LC-MS at 350 nm.

T1 sequence (P00761 9-231): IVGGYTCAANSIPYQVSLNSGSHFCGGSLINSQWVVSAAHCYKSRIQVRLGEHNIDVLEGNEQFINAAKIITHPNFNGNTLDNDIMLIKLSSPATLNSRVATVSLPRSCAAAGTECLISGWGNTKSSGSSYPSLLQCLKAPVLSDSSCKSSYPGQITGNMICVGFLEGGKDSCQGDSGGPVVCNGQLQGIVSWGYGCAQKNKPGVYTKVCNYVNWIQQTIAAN

Substance	Kusebauch 24 h, RT: Percent Cleavage of Tag [by UV350 - Peptide-Tag vs. Tag] [1] [%]	Percent Cleavage of Tag [by UV at 350 nm] [2] [%]
Ac-nitroTyr-SGKATHYFIDLN-K-OH (Ac-[Tyr(3-NO2)]SGKATHYFIDLNK-OH; SMILES CC[C@H](C)[C@H](NC(=O)[C@H](Cc1ccccc1)NC(=O)[C@H](Cc1ccc(O)cc1)NC(=O)[C@H](Cc1c[nH]cn1)NC(=O)[C@@H](NC(=O)[C@H](C)NC(=O)[C@H](CCCCN)NC(=O)CNC(=O)[C@H](CO)NC(=O)[C@H](Cc1ccc(O)c([N+](=O)[O-])c1)NC(C)=O)[C@@H](C)O)C(=O)N[C@@H](CC(=O)O)C(=O)N[C@@H](CC(C)C)C(=O)N[C@@H](CC(N)=O)C(=O)N[C@@H](CCCCN)C(=O)O) [Peptide 1]	100.0	100
Ac-nitroTyr-SGKHTHYFIDLN-K-OH (Ac-[Tyr(3-NO2)]SGKHTHYFIDLNK-OH; SMILES CC[C@H](C)[C@H](NC(=O)[C@H](Cc1ccccc1)NC(=O)[C@H](Cc1ccc(O)cc1)NC(=O)[C@H](Cc1c[nH]cn1)NC(=O)[C@@H](NC(=O)[C@H](Cc1c[nH]cn1)NC(=O)[C@H](CCCCN)NC(=O)CNC(=O)[C@H](CO)NC(=O)[C@H](Cc1ccc(O)c([N+](=O)[O-])c1)NC(C)=O)[C@@H](C)O)C(=O)N[C@@H](CC(=O)O)C(=O)N[C@@H](CC(C)C)C(=O)N[C@@H](CC(N)=O)C(=O)N[C@@H](CCCCN)C(=O)O) [Peptide 7]	100.0	100
